According to article PMC4448555:

Molecular target: Bcl-xL∆L∆CT (C-terminal and loop-truncated Bcl-xL)
Assay: SAXS; purified OM-induced Bcl-xL dimer, 1 mg/ml and 3 mg/ml, 15 °C; mass from forward scattering against lysozyme

- stoichiometry N: 2
Substance: Bcl-xL∆L∆CT (C-terminal and loop-truncated Bcl-xL) (domain or fragment)
